From US20260216326A1 (PROMETHEUS BIOSCIENCES, published 2026)
Substitutions are numbered along the chain they refer to.

B1: A74 (antibody, human IgG1, V domains shown)
VH: QVQLVQSGAEVKKPGASVKVSCKASGFDIQDTYMHWVRQAPGQGLEWMGRIEPASGHIKYDPKFQGRVTITTDTSTSTVYMELSSLRSEDTAVYYCARSGGLPDWWGQGTTVTVSS
VL: EIVLTQSPGTLSLSPGERATLSCRASSSVSYMYWYQQKPGQAPRPWIYATSNLASGIPDRFSGSGSGTDFTLTISRLEPEDFAVYYCQQWEGNPRTFGGGTKLEIK
notes: human IgG1/kappa (pFuse vectors), culture supernatant
B2: A120 (antibody, human IgG1, V domains shown)
VH: B1 VH with I58V, I70M, T72R
VL: B1 VL
notes: as for B1
B3: A75 (antibody, human IgG1, V domains shown)
VH: B1 VH with V68A
VL: B1 VL
notes: as for B1
B4: A117 (antibody, human IgG1, V domains shown)
VH: B1 VH with E52D, I70M, T72R
VL: B1 VL
notes: as for B1
B5: A127 (antibody, human IgG1, V domains shown)
VH: B1 VH with R38K, A40R, E52D, I58T, G66V, V79A, M81L, W105V
VL: B1 VL with P45L, W46L, E91K
notes: as for B1
B6: A116 (antibody, human IgG1, V domains shown)
VH: B1 VH with G66V, T72R
VL: B1 VL
notes: as for B1
B7: A121 (antibody, human IgG1, V domains shown)
VH: B1 VH with A40R, E52D, I58T, G66V, V68A, V79A, M81L, W105V
VL: B1 VL with P45L, W46L, E91K
notes: as for B1
B8: A109 (antibody, human IgG1, V domains shown)
VH: B1 VH with I70M, T72R, V79A
VL: B1 VL
notes: as for B1
B9: A94 (antibody, human IgG1, V domains shown)
VH: B1 VH with G66V, V68A, T72R
VL: B1 VL with P45L, W46L
notes: as for B1
B10: A88 (antibody, human IgG1, V domains shown)
VH: B1 VH with I70M, T72R
VL: B1 VL with P45L, W46L, F70Y, L77V
notes: as for B1
B11: A114 (antibody, human IgG1, V domains shown)
VH: B1 VH with G66V, I70M, T72R
VL: B1 VL
notes: as for B1
B12: A105 (antibody, human IgG1, V domains shown)
VH: B1 VH with R38K, A40R, M48I, E52D, I58T, G66V, V68A, W105V
VL: B1 VL with P45L, W46L, E91K
notes: as for B1
B13: A119 (antibody, human IgG1, V domains shown)
VH: B1 VH with I58T, I70M, T72R
VL: B1 VL
notes: as for B1
B14: A112 (antibody, human IgG1, V domains shown)
VH: B1 VH with R38K, A40R, I70M, T72R
VL: B1 VL
notes: as for B1
B15: A122 (antibody, human IgG1, V domains shown)
VH: B1 VH with A40R, M48I, E52D, I58T, G66V, V68A, T72R, V79A, M81L, W105V
VL: B1 VL with P45L, W46L, E91K
notes: as for B1
B16: A99 (antibody, human IgG1, V domains shown)
VH: B1 VH with G66V, T72R
VL: B1 VL with P45L, W46L
notes: as for B1
B17: A87 (antibody, human IgG1, V domains shown)
VH: B1 VH with I70M, T72R
VL: B1 VL with P45L, W46L, L77V
notes: as for B1
B18: A123 (antibody, human IgG1, V domains shown)
VH: B1 VH with A40R, M48I, E52D, I58T, G66V, T72R, V79A, M81L, W105V
VL: B1 VL with P45L, W46L, E91K
notes: as for B1
B19: A85 (antibody, human IgG1, V domains shown)
VH: B1 VH with I70M, T72R
VL: B1 VL with P45L, W46L, I57V
notes: as for B1
B20: A96 (antibody, human IgG1, V domains shown)
VH: B1 VH with V68A, I70M, T72R
VL: B1 VL
notes: as for B1
B21: A101 (antibody, human IgG1, V domains shown)
VH: B1 VH with R38K, A40R, E52D, I58T, G66V, V68A, V79A, M81L, W105V
VL: B1 VL with P45L, W46L, E91K
notes: as for B1
B22: A115 (antibody, human IgG1, V domains shown)
VH: B1 VH with G66V, V68A, I70M, T72R
VL: B1 VL
notes: as for B1
B23: A92 (antibody, human IgG1, V domains shown)
VH: B1 VH with I70M, T72R, M81L
VL: B1 VL with P45L, W46L
notes: as for B1
B24: A98 (antibody, human IgG1, V domains shown)
VH: B1 VH with G66V, V68A, I70M, T72R
VL: B1 VL with P45L, W46L
notes: as for B1
B25: A95 (antibody, human IgG1, V domains shown)
VH: B1 VH with V68A
VL: B1 VL
notes: as for B1
B26: A107 (antibody, human IgG1, V domains shown)
VH: B1 VH with R38K, A40R, M48I, E52D, I58T, G66V, V68A, V79A, M81L, W105V
VL: B1 VL with P45L, W46L
notes: as for B1
B27: A89 (antibody, human IgG1, V domains shown)
VH: B1 VH with I70M, T72R
VL: B1 VL with L13A, P45L, W46L
notes: as for B1
B28: A110 (antibody, human IgG1, V domains shown)
VH: B1 VH with R38K, I70M, T72R
VL: B1 VL
notes: as for B1
B29: A126 (antibody, human IgG1, V domains shown)
VH: B1 VH with R38K, A40R, E52D, I58T, G66V, T72R, V79A, M81L, W105V
VL: B1 VL with P45L, W46L, E91K
notes: as for B1
B30: A100 (antibody, human IgG1, V domains shown)
VH: B1 VH with A40R, M48I, E52D, I58T, G66V, V68A, V79A, M81L, W105V
VL: B1 VL with P45L, W46L, E91K
notes: as for B1
B31: A104 (antibody, human IgG1, V domains shown)
VH: B1 VH with M48I, E52D, I58T, G66V, V68A, V79A, M81L, W105V
VL: B1 VL with P45L, W46L, E91K
notes: as for B1
B32: A91 (antibody, human IgG1, V domains shown)
VH: B1 VH with I70M, T72R, V79A
VL: B1 VL with P45L, W46L
notes: as for B1
B33: A90 (antibody, human IgG1, V domains shown)
VH: B1 VH with I70M, T72R
VL: B1 VL with L11M, P45L, W46L
notes: as for B1
B34: A111 (antibody, human IgG1, V domains shown)
VH: B1 VH with A40R, I70M, T72R
VL: B1 VL
notes: as for B1
B35: A93 (antibody, human IgG1, V domains shown)
VH: B1 VH with I70M, T72R, V79A, M81L
VL: B1 VL with P45L, W46L
notes: as for B1
B36: A128 (antibody, human IgG1, V domains shown)
VH: B1 VH with A40R, E52D, I58T, G66V, T72R, V79A, M81L, W105V
VL: B1 VL with P45L, W46L, E91K
notes: as for B1
B37: A103 (antibody, human IgG1, V domains shown)
VH: B1 VH with R38K, A40R, M48I, E52D, I58T, G66V, T72R, V79A, M81L, W105V
VL: B1 VL with P45L, W46L, E91K
notes: as for B1
B38: A125 (antibody, human IgG1, V domains shown)
VH: B1 VH with R38K, A40R, E52D, I58T, G66V, V68A, T72R, V79A, M81L, W105V
VL: B1 VL with P45L, W46L, E91K
notes: as for B1
B39: A102 (antibody, human IgG1, V domains shown)
VH: B1 VH with R38K, A40R, M48I, E52D, I58T, G66V, V79A, M81L, W105V
VL: B1 VL with P45L, W46L, E91K
notes: as for B1
B40: A113 (antibody, human IgG1, V domains shown)
VH: B1 VH with G66V, V68A, T72R
VL: B1 VL
notes: as for B1
B41: A108 (antibody, human IgG1, V domains shown)
VH: B1 VH with Q1E, I70M, T72R
VL: B1 VL
notes: as for B1
B42: A86 (antibody, human IgG1, V domains shown)
VH: B1 VH with I70M, T72R
VL: B1 VL with P45L, W46L, F70Y
notes: as for B1
B43: A97 (antibody, human IgG1, V domains shown)
VH: B1 VH with G66V, I70M, T72R
VL: B1 VL with P45L, W46L
notes: as for B1
B44: A129 (antibody, human IgG1, V domains shown)
VH: B1 VH with A40R, E52D, I58T, G66V, V79A, M81L, W105V
VL: B1 VL with P45L, W46L, E91K
notes: as for B1
B45: A118 (antibody, human IgG1, V domains shown)
VH: B1 VH with M48I, E52D, I70M, T72R
VL: B1 VL
notes: as for B1
B46: A124 (antibody, human IgG1, V domains shown)
VH: B1 VH with A40R, M48I, E52D, I58T, G66V, V79A, M81L, W105V
VL: B1 VL with P45L, W46L, E91K
notes: as for B1

The binders below were run against T1, human TL1A (Fitzgerald #30R-AT070) (human, UniProt O95150 72-251, limits assumed) (assay: ELISA titration, coated human TL1A, culture supernatant).
T1 construct: Coated on the ELISA plate at 1 ug/mL; also called TNFSF15
T1 sequence (looked up): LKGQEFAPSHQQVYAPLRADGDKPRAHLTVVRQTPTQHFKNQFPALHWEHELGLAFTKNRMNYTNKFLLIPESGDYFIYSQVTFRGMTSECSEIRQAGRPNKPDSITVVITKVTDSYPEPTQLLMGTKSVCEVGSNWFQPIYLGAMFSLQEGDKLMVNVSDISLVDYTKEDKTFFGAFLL
Work on B1 yielded a Kd of 0.141 nM. With B2 the Kd was 0.085 nM. B3 showed a Kd of 0.259 nM. With B4 the Kd was 0.094 nM. For B5, the Kd was 0.07 nM. Work on B6 yielded a Kd of 0.053 nM. With B7 the Kd was 0.106 nM. Binder B8 has a Kd of 0.05 nM. In the case of B9, the Kd is reported as 0.081 nM. With B10 the Kd was 0.081 nM. B11 showed a Kd of 0.051 nM. For B12, the Kd was 0.11 nM. B13 was tested, and the Kd was 0.087 nM. B14 gave a Kd of 0.054 nM. In the case of B15, the Kd is reported as 0.112 nM. Work on B16 yielded a Kd of 0.102 nM. With B17 the Kd was 0.121 nM. For B18, the Kd was 0.104 nM. In the case of B19, the Kd is reported as 0.13 nM. Binder B20 has a Kd of 0.095 nM. With B21 the Kd was 0.096 nM. B22 gave a Kd of 0.058 nM. For B23, the Kd was 0.121 nM. With B24 the Kd was 0.14 nM. With B25 the Kd was 0.105 nM. B26 was tested, and the Kd was 0.071 nM. In the case of B27, the Kd is reported as 0.117 nM. B28 showed a Kd of 0.056 nM. B29 was tested, and the Kd was 0.123 nM. Binder B30 has a Kd of 0.084 nM. B31 was tested, and the Kd was 0.108 nM. Binder B32 has a Kd of 0.132 nM. In the case of B33, the Kd is reported as 0.107 nM. B34 showed a Kd of 0.068 nM. In the case of B35, the Kd is reported as 0.117 nM. In the case of B36, the Kd is reported as 0.111 nM. B37 gave a Kd of 0.107 nM. Work on B38 yielded a Kd of 0.116 nM. With B39 the Kd was 0.104 nM. In the case of B40, the Kd is reported as 0.05 nM. Work on B41 yielded a Kd of 0.055 nM. Work on B42 yielded a Kd of 0.129 nM. Binder B43 has a Kd of 0.071 nM. For B44, the Kd was 0.099 nM. B45 was tested, and the Kd was 0.083 nM. Work on B46 yielded a Kd of 0.091 nM.
